Four molecules from publication PMC8605244 (The Journal of Biological Chemistry, 2021) can be followed below.

Test [1] concerns the target T1, H-Ras, biotinylated, loaded with a nonhydrolyzable GTP analog (Ras-GTP) or with GDP (Ras-GDP) (UniProt P01112 1-189, biotin on the AVI-tag (attached in vivo by BirA)).
T1 construct: H-Ras; One construct used in two nucleotide states; also called biotinylated-Ras; not shown: His tag, N-terminal, cleaved; AVI-tag, C-terminal, kept
Kind of test: SPR; OpenSPR, streptavidin chip; biotinylated Ras in the GDP-bound state immobilised at 50 ug/ml; RASSF5 variants injected at 1.25-20 uM; Ras buffer (Tris 20 mM, NaCl 100 mM, MgCl2 5 mM, pH 7.5) with 0.1% Tween20 and 0.5% BSA; 30 ul/min. The note with it: both partners purified.

The target of test [2] is T1, H-Ras, biotinylated, loaded with a …. The test is described as follows: SPR; OpenSPR, streptavidin chip; biotinylated Ras in the GTP-bound state (nonhydrolyzable analog) immobilised at 50 ug/ml; RASSF5 variants injected at 1.25-20 uM; Ras buffer (Tris 20 mM, NaCl 100 mM, MgCl2 5 mM, pH 7.5) with 0.1% Tween20 and 0.5% BSA; 30 ul/min. The note with it: both partners purified.

Residue numbers refer to the chain shown, from its start.

T1 sequence (P01112 whole entry): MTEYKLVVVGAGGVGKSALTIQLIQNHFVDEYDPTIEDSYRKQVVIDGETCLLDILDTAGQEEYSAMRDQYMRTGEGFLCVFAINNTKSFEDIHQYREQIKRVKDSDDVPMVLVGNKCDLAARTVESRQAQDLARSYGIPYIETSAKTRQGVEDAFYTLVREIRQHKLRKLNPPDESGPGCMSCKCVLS

B1: RASSF5 RA domain mutant D2 (RTRHWKR) (designed binder)
chain: EIKQKIDSYNSRERTRHGMKLSEDGTYTGWIKVHLKLRRPVTVPAGIRPQSIYDAIKEVNPAATTDKRTSFYLPLDAIKQLKISSTTTVSEVIQGLLKKFRVVDNPQKFALFKRIHKDGQVLFQKLSIADYPLYLRLLAGPDTDVLSFVLKENETGEV
notes: RASSF5 (NORE1A) RA domain, residues 205-362, with RTRHWKR at positions 218, 219, 220, 221, 234, 286, 305 (WT: KHCLFHM); The numbers follow PDB 3DDC; Selected by yeast surface display against Ras-GDP; source: E. coli BL21(DE3), pET28a, purified (Ni beads, Superdex75 SEC)
Regarding B1, in test [1], the Kd was determined as 1600 ± 300 nM.

B2: RASSF5 RA domain mutant T2 (YRRLYKR) (designed binder)
chain: B1 chain with R14Y, T15R, H17L, W30Y
notes: RASSF5 (NORE1A) RA domain, residues 205-362, with YRRLYKR at positions 218, 219, 220, 221, 234, 286, 305 (WT: KHCLFHM); The numbers follow PDB 3DDC; Selected by yeast surface display against Ras-GTP; source: E. coli BL21(DE3), pET28a, purified (Ni beads, Superdex75 SEC)
For B2, binding in test [1] was characterised by a dissociation constant (Kd) of 3000 ± 500 nM.

B3: RASSF5 RA domain mutant T3 (WSRLYKR) (designed binder)
chain: B1 chain with R14W, T15S, H17L, W30Y
notes: RASSF5 (NORE1A) RA domain, residues 205-362, with WSRLYKR at positions 218, 219, 220, 221, 234, 286, 305 (WT: KHCLFHM); The numbers follow PDB 3DDC; Selected by yeast surface display against Ras-GTP; source: E. coli BL21(DE3), pET28a, purified (Ni beads, Superdex75 SEC)
As for B3, the figures for the Kd in test [1] and in test [2] were 1600 ± 300 nM and 1000 ± 150 nM, respectively.

B4: RASSF5 RA domain mutant D3 (FRKFWHK) (designed binder)
chain: B1 chain with R14F, T15R, R16K, H17F, K82H, R101K
notes: RASSF5 (NORE1A) RA domain, residues 205-362, with FRKFWHK at positions 218, 219, 220, 221, 234, 286, 305 (WT: KHCLFHM); The numbers follow PDB 3DDC; Selected by yeast surface display against Ras-GDP; source: E. coli BL21(DE3), pET28a, purified (Ni beads, Superdex75 SEC)
In test [1], B4 registered a dissociation constant (Kd) of 1600 ± 200 nM.
